Data from paper PMC10743992, “A Transient π–π or Cation–π Interaction between Degron and Degrader Dual Residues: A Key Step for the Substrate Recognition and Discrimination in the Processive Degradation of SulA by ClpYQ (HslUV) Protease in Escherichia coli” (International Journal of Molecular Sciences, 2023).

T1: His (6x)-tagged ClpY (Escherichia coli, UniProt P0A6H5 1-443)
T1 construct: ClpY (HslU) ATPase/unfoldase of Escherichia coli, wild type, cloned in pET21a at NdeI-HindIII; Used as the 6-oligomer (1.3 uM) with 5 mM ATP; also called His-ClpY; HslU
T1 sequence (looked up): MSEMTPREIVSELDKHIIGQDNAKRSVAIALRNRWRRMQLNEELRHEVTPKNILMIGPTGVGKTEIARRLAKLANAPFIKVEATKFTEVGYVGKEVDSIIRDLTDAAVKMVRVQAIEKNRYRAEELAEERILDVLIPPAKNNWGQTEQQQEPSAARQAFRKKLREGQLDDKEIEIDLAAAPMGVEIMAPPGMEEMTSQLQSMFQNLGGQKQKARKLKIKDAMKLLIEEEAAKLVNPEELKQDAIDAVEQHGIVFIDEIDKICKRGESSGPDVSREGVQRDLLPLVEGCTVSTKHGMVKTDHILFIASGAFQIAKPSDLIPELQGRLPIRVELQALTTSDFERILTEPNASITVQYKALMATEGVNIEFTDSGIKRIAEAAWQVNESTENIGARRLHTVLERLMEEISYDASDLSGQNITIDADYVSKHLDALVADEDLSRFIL

B1: MBP-SulA (natural protein, Escherichia coli, UniProt P0AFZ5 1-169, looked up)
chain: MYTSGYAHRSSSFSSAASKIARVSTENTTAGLISEVVYREDQPMMTQLLLLPLLQQLGQQSRWQLWLTPQQKLSREWVQASGLPLTKVMQISQLSPCHTVESMVRALRTGNYSVVIGWLADDLTEEEHAELVDAANEGNAMGFIMRPVSASSHATRQLSGLKIHSNLYH
notes: also called wild-type MBP-SulA; source: E. coli BL21 (DE3), purified (amylose resin)
B2: MBP-SulA^F143K (natural protein, Escherichia coli, UniProt P0AFZ5 1-169, looked up)
chain: MYTSGYAHRSSSFSSAASKIARVSTENTTAGLISEVVYREDQPMMTQLLLLPLLQQLGQQSRWQLWLTPQQKLSREWVQASGLPLTKVMQISQLSPCHTVESMVRALRTGNYSVVIGWLADDLTEEEHAELVDAANEGNAMGKIMRPVSASSHATRQLSGLKIHSNLYH
notes: SulA of Escherichia coli with F143K, cloned in pMal-c2X at EcoRI-BamHI; source: E. coli BL21 (DE3), purified (amylose resin)
B3: MBP-SulA^F143H (natural protein, Escherichia coli, UniProt P0AFZ5 1-169, looked up)
chain: MYTSGYAHRSSSFSSAASKIARVSTENTTAGLISEVVYREDQPMMTQLLLLPLLQQLGQQSRWQLWLTPQQKLSREWVQASGLPLTKVMQISQLSPCHTVESMVRALRTGNYSVVIGWLADDLTEEEHAELVDAANEGNAMGHIMRPVSASSHATRQLSGLKIHSNLYH
notes: SulA of Escherichia coli with F143H, cloned in pMal-c2X at EcoRI-BamHI; source: E. coli BL21 (DE3), purified (amylose resin)

molecular target: T1, His (6x)-tagged ClpY; assay: pull-down; His-ClpY (6-oligomer, 1.3 uM) held on cobalt resin; MBP-SulA or variant 7.8 uM; 50 mM HEPES pH 7.4, 150 mM NaCl, 5% glycerol, 5 mM MgCl2, 0.04% Triton X-100, 5 mM ATP, 41 °C 3 h, then resin at 4 °C; 10 washes with 300 mM NaCl; SDS-PAGE, Coomassie; settings: both partners purified

Binding result, binds:
B1, B2, B3
